Results on nine substances are retold here after patent US9897611B2, “Molecule library constructed on the basis of backbone structure of microprotein” (NATIONAL INSTITUTE OF ADVANCED INDUSTRIAL SCIENCE AND …, priority 2012, dated 2018).

Where two headings read alike, the source gives them in different places. Ends that are not written are not given here.

The target in assay [1] is T1, human IgG Fc region (Homo sapiens, UniProt P01857).
T1 construct: The Fc region was prepared by the papain digestion of a human monoclonal antibody IgG
The assay is described as follows: SPR binding affinity analysis on immobilized Fc region prepared by papain digestion of human monoclonal IgG. In general terms: In SPR one partner is held on a chip, and binding of the other changes the refractive index at the surface.
Protocol: The Fc region was prepared by the papain digestion of a human monoclonal antibody IgG (Chugai Pharmaceutical Co., Ltd.) according to the instruction manual attached to Pierce® Fab Preparation Kit (Thermo Fisher Scientific Inc. Pierce) followed by purification by affinity chromatography using MabSelect SuRe (GE Healthcare Japan Corp.), HiTrap DEAE anion-exchange chromatography (GE Healthcare Japan Corp.), and gel filtration chromatography using Superdex 200 (GE Healthcare Japan Corp.).
The Fc region prepared in the section 1) of Example 2 was immobilized onto a sensor chip CM5 (GE Healthcare Japan Corp.) by the amine coupling method.
Subsequently, an example of binding affinity analysis by the surface plasmon resonance method is shown as to the functions of the thioredoxin fusion proteins with the prepared polypeptides. The analysis apparatus used was Biacore T100 (GE Healthcare Japan Corp.). […] The data was processed with Biacore T100 Evaluation Software (GE Healthcare Japan Corp.).
The assay employed Biacore T100 (GE Healthcare Japan Corp.).
Subsequently, the prepared 5 types of polypeptides were analyzed for their binding affinity by surface plasmon resonance. The assay employed Biacore T100 (GE Healthcare Japan Corp.).

For assay [2], the system named is human Fc region manufactured by Jackson ImmunoResearch Laboratories, Inc. Briefly: SPR binding affinity analysis, peptide as analyte on immobilized human Fc region (Jackson ImmunoResearch).
Description: A human Fc region manufactured by Jackson ImmunoResearch Laboratories, Inc. was immobilized onto a sensor chip CM5 (GE Healthcare Japan Corp.) by the amine coupling method using Amine Coupling Kit (GE Healthcare Japan Corp.).
The mark [3] stands for this setting: analyte on Fc region immobilized on CM5, HBS-T, 25° C., read-out: equilibrium dissociation constant KD.
Setting [4] is: alanine variants of p17_2, Fc region immobilized on CM5, read-out: KD (nM), binding dissociation constant of p17_2 variant.

For “DAAWHLGELVWAT [FcIII-Ala peptide, reference compound]”, the Kd in assay [1] (Fc region immobilized on CM5, 0.78-100 μM peptide, read-out: equilibrium dissociation constant KD by Scatchard plot using equilibrium value) came to 42000 nM. Take “DAAWHLGELVWATYYDPETGTWLPDWQTMAQK [pep21 peptide]”: the “improvement in affinity compared with FcIII-Ala peptide” value in assay [1] is given as “approximately 420 fold”.

In the case of “DAAWHLGELVWATYYDPETGTWQPDWLYMTTR [pep14 peptide]”, the Kd in assay [1] (setting [3]) is 120 nM. Consider “GVVRQWSGGGGSGGGGRSSIAYGGG [2A1Gly peptide, 2A1 peptide with the chignolin variant region replaced by a glycine-rich linker]”, for which, in assay [2] (chignolin variant region replaced with glycine-rich linker), the “binding affinity relative to that of the 2A1 peptide” value is on record as 1/1000. In assay [2] (peptide analyte, Fc immobilized on sensor chip CM5, HBS-T pH 7.4, 25° C., read-out: equilibrium dissociation constant KD), the Kd was 23000 nM. For “p17_2: SEQ ID NO: 47; 54 residues, p17 with Gly, Pro, Gly at the N terminus, from protease cleavage of thioredoxin fusion (GPGISAFSPGRGVYDPETGTWYDAAWHLGELVWATYYDPETGTWEPDWQRMLGQ; Selected sequence, p17_2)”, in assay [1], the “improvement in affinity compared with FcIII-Ala peptide” value was “approximately 26000 fold” and the “improvement in binding affinity compared with pep24 peptide” value amounted to 138 fold. Also, the Kd in assay [1] (setting [3]) was determined as 1.6 nM. Take “p17_D47A: alanine variant of p17_2 polypeptide, SEQ ID NO: 61 (GPGISAFSPGRGVYDPETGTWYDAAWHLGELVWATYYDPETGTWEPAWQRMLGQ; Selected sequence, p17_D47A)”: the Kd in assay [1] (setting [4]) turned out to be 45 nM. As to “p17_P46A: alanine variant of p17_2 polypeptide, SEQ ID NO: 60 (GPGISAFSPGRGVYDPETGTWYDAAWHLGELVWATYYDPETGTWEADWQRMLGQ; Selected sequence, p17_P46A)”, in assay [1] (setting [4]), the Kd is 5.6 nM. On the same count and under the same terms, then “p17_R50A: alanine variant of p17_2 polypeptide, SEQ ID NO: 63 (GPGISAFSPGRGVYDPETGTWYDAAWHLGELVWATYYDPETGTWEPDWQAMLGQ; Selected sequence, p17_R50A)”, with 7.8 nM; and “p17_W48A: alanine variant of p17_2 polypeptide, SEQ ID NO: 62 (GPGISAFSPGRGVYDPETGTWYDAAWHLGELVWATYYDPETGTWEPDAQRMLGQ; Selected sequence, p17_W48A)”, with 200 nM.

The Kd is the concentration at which binding is half-saturated.
